Measured values as given in a protein production outcome set (Wang et al. 2014).

Assay: label from the status in PepcDB records
In the case of “MVLAGGVGKRLLPLTRERPKPYLPLAGKPLYMYAVEQVAMVRSLLDRAVMVTPPGHPTPPGSLPSWLDTVEQQGEGVEAGLATALKRLGGGEEVVVSFVGYLARPNTLVRHVLDFYSVTRYKLVLALAPVTRGSESFGFVDADPSTGRVLGFSGSREEWMAGRGRVFAGVLAGDPEALEVLAGEGFVEGINTLARRGLVGSVVWPGEWLEVGYPCDLLEAPRLVVEAWAAVISAKARVARSSVIQGGVVIEEDAEVGEGAVVEGPAYLGRGAVVGRNSVVGPGVVLEEGAVVGDLVSIERSVMLERAEASGPSRLEGVVIGDGAYIAPLAAATNREGCTVVAPKTRLGPRATLEPGKTYTLEHHHHHH”, the protein production was “failed”. For “MVLEIGLPPLHVGFIMAYSLLAASLSIFLGLALAEFDVVAHAVLAGYYAGLFFPMSVYTNFFTAAASGAPRPAKEYLPLLLAFILAAVAPLHGSTSTLATLFLLSQAFLLYYMALQAGRFRRDALARFSALAPPISGTGASLILLSSSQLGFLDALMSLTLAFSTPVPLLMAPMAIGASIYGLGPARGKEAIIRLSPALTAIPASILSVLTLSINPYLLPLSLYLVVMRPWRIVSELISVRRPKPPQLYLLSVHAATLAAIVSSLILASNSNIVEAGHAIMIGVIAPHALLHSIVRGGEIPFTRRPRSWTPIPPLLLAASTPLRFASKEASLALALLALSIHVASILDPHPRNIIPRAFRVEGGKQQSATTGG”, the protein production was “failed”. With “MVLIYCYKYFHEFMEAFDRIQKNIMEAHMKKVIGAATATVFGLGAFTTTATAETIVTADVLNVREKPTTESKVVEKVKNGQELKVINTEDGWSKIELNGKEVFVSSEFTKDIYHVTANLLNVRTEANTESKILGRLKKDDVIESTNQVKDGWLQFEYKGKTAYVNVSFLSSTAPVEKKADEKTKQVAKVQKMVKAKEEAKTQKVTKAKETIKPKEEEKVQEVVKPKEEEKVQEVVKPKEEEKVQEVVKPKEEEKIQEVAKPKEEAKVQEVAKPKEEEKVQEVAKPKEEEKVQEVVKPKEEEKVQEVAKSKEEAKVQEVAKPKEEAKVQEVVKPKEEAKVQEEAKAQEIAKAKEEAKAQEIAKAKEEEKAREIAKAKEEAKAQEIAKAKEEAKAQEIAKAKEEAKAQEIAKAKEEEKAREIAKAKEEAKAQEIAKAKEEAKAREIAKAKEEAKAREAIKAKEESKNNTQSAKRELTVVATAYTADPSENGTYGGRVLTAMGHDLTANPNMRIIAVDPKVIPLGSKVWVEGYGEAIAGDTGSAIKGNRIDVLMGSKSKAMDWGRQTVKVKIL” the protein production was “failed”. In the case of “MVLKGDAKRIVAMSSTHIAMLDAIGEVRCITGVSGIDYISNPDIQARRDSIGDVGYEGNINYELLLSLDPDLVLLYGVNGASAMESKLEELDIPFMYVGDYLEESPLGKAEWMVVLSEVTGKREKGEKAFAAIPVRYNALKKKVADSTLGLEHHHHHH”, the protein production was “not failed”. With “MVLLLRYRSLTINLTPLIPKSQKFHTLQSFRNPNFISIPKISASTNNPTTTTNRSISDATKFAKSVLFIPPGVEIEELTDDMVLPGSNIVIGPFAGHSQIKEVEFVKSSARARDCPKDDRPEIAILGRSNVGKSSLINCLVRKKEVALTSKKPGKTQLINHFLVNKSWYIVDLPGYGFAKVSDAAKTDWSAFTKGYFLNRDSLVCVLLLIDASVPPQKIDLDCANWLGRNNVPMTFVFTKCDKMKATKGKRPDENIKAFQQIIRENFKVHPPWILTSSVSGLGRDELLLHMSQLRNYWDQ” the protein production was “failed”. For “MVLSEIFRGNNEVREAARAGVQIDTVSVASASDAASAADGSGKITGAIRPSAVAGSFYPADRTALKQLINQQLDYGRKLLQQLEPTLPAGVPRAVIVPHAGYIYSGTAAALAYALLERGRGSVTRAVIVGPTHRVAVRGVACSTAAAFETPLGTVPVDIAAERKALGLSVNEPLRSGTHARPGAPAPAMIVNAPTHAQEHAVEVQIPFLQTVLGPDLTIVPLNAGDATPQEVGDVLRALWGGPETVIVISSDLSHYHPHEVARALDDQTIADIAALHLPIHPRRACGAYPINGLLDVLKGRKDMRLFELGCSTSGDDGVVALAGQPRPAMRDADEPVVGYVSFAAWESKPEADALAGADDLGTSGTPSHGEVLLKLARAAIRERLHIEHPTAADSTASILAANPWLNEPGACFVTLTEGGRLRGCIGSLVAHRSLGKDVAEHAVDAATRDPRFTPVTAAEYPLLNVEVSVLGEPEPITVNSCDADSRGTGSKTATLASLQSGPQTDAVKRDGSNVERPVRSRTELEEVLRPGKDGLILADRRGRSATFLPQVWDELPDPHDFVAHLLAKAGIRPSYDWTDSEIDCQRYEVTAYAEH”, the protein production was “failed”. In the case of “MVLSVVVVGKPRCRSIAVAARERLHRYGEYPMSSNNASGKVVSVDEQAFENAGEQAADEDGFPVVDETPEFEAAVEQETQAKVDANHPDGIADTSEDRIHGVTLEQEERIRAREAELERISAQAELGTQDGREQRTRDIAAKRSAVRRAEFQTRAASVDPMADPERDDPRAELTQEQLAAVNKQSMRLAEKLDGWSRAAIGRRLGEAVVGGKDVTSAVVGVFEELQTAPGTVIPIGKLEDVNRKEVSIEGTVTRLWKPSSAAISQVGLIEDESGKTKFTSWVASEQPWIEEGEHVRIHGAAKNWYNGRVSVALTGWSTVHFPERGRWWEALEHHHHHH”, the protein production was “failed”. With “MVLVTSVRDYINRMLQDISGMKVLILDSETVSNVSIVYSQSELLQKEVFLVEMIDSISVSKESMSHLKAVYFIRPTSDNIQKLRYQLANPRFGEYHLFFSNLLKDTQIHILADSDEQEVVQQVQEYYADFVSGDPYHFTLNMASNHLYMIPAVVDPSGLQRFSDRVVDGIAAVFLALKRRPVIRYQRTSDTAKRIAHETAKLMYQHESALFDFRRTESSPLLLVIDRRDDPVTPLLNQWTYQAMVHELIGLQDNKVDLKSIGSLPKDQQVEVVLSSEQDAFFKSNMYENFGDIGMNIKRMVDDFQQVAKSNQNIQTVEDMARFVDNYPEYKKMQGNVSKHVTLVTEMSKLVEARKLMTVSQTEQDLACNGGQGAAYEAVTDLLNNESVSDIDRLRLVMLYALRYEKENPVQLMQLFNKLASRSPKYKPGLVQFLLKQAGVEKRTGDLFGNRDLLNIARNMARGLKGVENVYTQHQPLLFQTMESITRGRLRDVDYPFVGDHFQQGRPQEVVIFMVGGTTYEESRSVALQNATNSGVRFILGGTAVLNSKRFLKDLEEAQRISRSGSHMV” the protein production was “failed”. For “MVLYIILAIIVIILIAVGVLFYLRSNKRQIIEKAIERKNEIETLPFDQNLAQLSKLNLKGETKTKYDAMKKDNVESTNKYLAPVEEKIHNAEALLDKFSFNASQSEIDDANELMDSYEQSYQQQLEDVNEIIALYKDNDELYDKCKVDYREMKRDVLANRHQFGEAASLLETEIEKFEPRLEQYEVLKADGNYVQAHNHIAALNEQMKQLRSYMEEIPELIRETQKELPGQFQDLKYGCRDLKVEGYDLDHVKVDSTLQSLKTELSFVEPLISRLELEEANDKLANINDKLDDMYDLIEHEVKAKNDVEETKDIITDNLFKAKDMNYTLQTEIEYVRENYYINESDAQSVRQFENEIQSLISVYDDILKEMSKSAVRYSEVQDNLQYLEDHVTVINDKQEKLQNHLIQLREDEAEAEDNLLRVQSKKEEVYRRLLASNLTSVPERFIIMKNEIDHEVRDVNEQFSERPIHVKQLKDKVSKIVIQMNTFEDEANDVLVNAVYAEKLIQYGNRYRKDYSNVDKSLNEAERLFKNNRYKRAIEIAEQVLESVEPGVTKHIEEEVIKQ”, the protein production was “failed”. In the case of “MVMIWYKALFSFNGRLNRQGFWIGFGINFIFLFIIANFGPKETAFSLTMVLPLLLASYSCVAVIIKRLHDRNRSARAILMMFIPLICYGVSLATQGTMAWLLGVMMPMFIGTMLLLEWGVFKSYPQANQYGEKGETFCFT”, the protein production was “failed”.
